Source: patent US20220259306A1

Molecular target: hFc-tagged NKG2A/CD94 protein (NKG2A/CD94-hFc), immunogen A (human) (UniProt P26715)
Test: ELISA on NKG2A/CD94-hFc protein (immunogen A), OD 450 nm

Sequence of hFc-tagged NKG2A/CD94 protein (NKG2A/CD94-hFc), immunogen A (human) (P26715 94-233 limits assumed, chain 1 of 2): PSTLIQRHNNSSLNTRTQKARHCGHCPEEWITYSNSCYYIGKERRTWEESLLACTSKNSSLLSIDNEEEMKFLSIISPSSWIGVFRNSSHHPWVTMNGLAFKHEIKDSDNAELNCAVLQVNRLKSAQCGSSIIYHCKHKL
Sequence of hFc-tagged NKG2A/CD94 protein (NKG2A/CD94-hFc), immunogen A (human) (chain, as listed by the source limits assumed, chain 2 of 2): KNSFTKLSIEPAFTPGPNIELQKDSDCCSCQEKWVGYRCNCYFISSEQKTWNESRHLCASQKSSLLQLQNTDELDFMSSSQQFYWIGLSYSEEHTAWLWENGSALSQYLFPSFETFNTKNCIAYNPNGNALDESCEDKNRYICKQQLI

EC50 (read off the curve)	Substance
60 pM	control antibody-1
100 pM	control antibody-2
